Experimental data taken from patent publication US20200199206A1 (AC THERA, published 2020).

B1: clone 10 (VHH)
VHH: EVQLQASGGGFVQPGGSLRLSCAASGRTSWSEIMGWFRQAPGKEREFVSAISRYTDDYSYYADSVKGRFTISRDNSKNTVYLQMNSLRAEDTATYYCATYHYQYGGDQTFYWGQGTQVTVSS
B2: clone 40 (VHH)
VHH: EVQLQASGGGFVQPGGSLRLSCAASGRTFDGSAMGWFRQAPGKEREFVSAISASPSGESYYADSVKGRFTISRDNSKNTVYLQMNSLRAEDTATYYCAGRGRSQKSMYWGQGTQVTVSS
B3: clone 4 (VHH)
VHH: EVQLQASGGGFVQPGGSLRLSCAASGRTFRIDTMGWFRQAPGKEREFVSAISFDTSHENYYADSVKGRFTISRDNSKNTVYLQMNSLRAEDTATYYCAPESMWFSIEYWGQGTQVTVSS
B4: clone 7 (VHH)
VHH: EVQLQASGGGFVQPGGSLRLSCAASGTSYANSDMGWFRQAPGKEREFVSAISGGDSAYYYYADSVKGRFTISRDNSKNTVYLQMNSLRAEDTATYYCATQQIGMREYYWGQGTQVTVSS
B5: clone 66 (VHH)
VHH: EVQLQASGGGFVQPGGSLRLSCAASGTGSNASAMGWFRQAPGKEREFVSAISRHEGQPPYYADSVKGRFTISRDNSKNTVYLQMNSLRAEDTATYYCAMRYQSHIDIPGDSSPKLMYWGQGTQVTVSS
B6: clone 5 (VHH)
VHH: EVQLQASGGGFVQPGGSLRLSCAASGTTSFRDTMGWFRQAPGKEREFVSAISWNEGHAHYYADSVKGRFTISRDNSKNTVYLQMNSLRAEDTATYYCASEDMWFNHFYWGQGTQVTVSS
B7: clone 2 (VHH)
VHH: EVQLQASGGGFVQPGGSLRLSCAASGFFSNIEDMGWFRQAPGKEREFVSAISGYENESPYYADSVKGRFTISRDNSKNTVYLQMNSLRAEDTATYYCAAQSYHGKKGMTEYWGQGTQVTVSS
B8: clone 26 (VHH)
VHH: EVQLQASGGGFVQPGGSLRLSCAASGAYSARTTMGWFRQAPGKEREFVSAISAHEGQAPYYADSVKGRFTISRDNSKNTVYLQMNSLRAEDTATYYCATRAHEPKGMYWGQGTQVTVSS
B9: clone 28 (VHH)
VHH: EVQLQASGGGFVQPGGSLRLSCAASGASYRGTSMGWFRQAPGKEREFVSAISFRPDQQPYYADSVKGRFTISRDNSKNTVYLQMNSLRAEDTATYYCAERRQHSRGLYWGQGTQVTVSS
B10: clone 42 (VHH)
VHH: EVQLQASGGGFVQPGGSLRLSCAASGDGSFASAMGWFRQAPGKEREFVSAISAHAGGSPYYADSVKGRFTISRDNSKNTVYLQMNSLRAEDTATYYCAQRIGATRAMYWGQGTQVTVSS
B11: clone 1 (VHH)
VHH: EVQLQASGGGFVQPGGSLRLSCAASGDTYRWDNMGWFRQAPGKEREFVSAISGLGNMDSYYADSVKGRFTISRDNSKNTVYLQMNSLRAEDTATYYCAQEEKWMSPQYWGQGTQVTVSS
B12: clone 60 (VHH)
VHH: EVQLQASGGGFVQPGGSLRLSCAASGSTFKHSAMGWFRQAPGKEREFVSAISSGPGMESYYADSVKGRFTISRDNSKNTVYLQMNSLRAEDTATYYCAGRAFPGQKMYWGQGTQVTVSS
B13: clone 49 (VHH)
VHH: EVQLQASGGGFVQPGGSLRLSCAASGGFFTSSTMGWFRQAPGKEREFVSAISRQHDNAPYYADSVKGRFTISRDNSKNMVYLQMNSLRAEDTATYYCAARNATHKGIYWGQGTQVTVSS
B14: clone 6 (VHH)
VHH: EVQLQASGGGFVQPGGSLRLSCAASGTTYSSDTMGWFRQAPGKEREFVSAISGRQNWDRYYADSVKGRFTISRDNSKNTVYLQMNSLRAEDTATYYCAYWGHGTYEFDPKSMYWGQGTQVTVSS
B15: clone 3 (VHH)
VHH: EVQLQASGGGFVQPGGSLRLSCAASGSTSYSYNMGWFRQAPGKEREFVSAISRDGDWKNYYADSVKGRFTISRDNSKNTVYLQMNSLRAEDTATYYCAFEEHWMTPLYWGQGTQVTVSS
B16: clone 57 (VHH)
VHH: EVQLQASGGGFVQPGGSLRLSCAASGGTSFQTAMGWFRQAPGKEREFVSAISSRQGSHPYYADSVKGRFTISRDNSKNTVYLQMNSLRAEDTATYYCATRMTETRKMYWGQGTQVTVSS
B17: clone 9 (VHH)
VHH: EVQLQASGGGFVQPGGSLRLSCAASGSYSAETDMGWFRQAPGKEREFVSAISGDPTTTTYYADSVKGRFTISRDNSKNTVYLQMNSLRAEDTATYYCAYQRLDNFEIYWGQGTQVTVSS
B18: clone 44 (VHH)
VHH: EVQLQASGGGFVQPGGSLRLSCAASGFTSGSTAMGWFRQAPGKEREFVSAISRFENQGNYYADSVKGRFTISRDNSKNTVYLQMNSLRAEDTATYYCATRAVASSTMYWGQGTQVTVSS
B19: clone 8 (VHH)
VHH: EVQLQASGGGFVQPGGSLRLSCAASGSTSSHYDMGWFRQAPGKEREFVSAISYNHDHDTYYADSVKGRFTISRDNSKNTVYLQMNSLRAEDTATYYCAGATATTDGGYQEYWGQGTQVTVSS
B20: clone 41 (VHH)
VHH: EVQLQASGGGFVQPGGSLRLSCAASGDTWRTTAMGWFRQAPGKEREFVSAISGGDNRGTYYADSVKGRFTISRDNSKNTVYLQMNSLRAEDTATYYCAGRLNQNGPMYWGQGTQVTVSS

Tests used:
LF-Biotin [1] = molecular target: T1, LF-Biotin (B. anthracis, UniProt P15917 34-809); test: non-adsorbed phage ELISA, VHH on M13 phage, LF-Biotin vs His-SNAP-Halo-Biotin
T1 sequence: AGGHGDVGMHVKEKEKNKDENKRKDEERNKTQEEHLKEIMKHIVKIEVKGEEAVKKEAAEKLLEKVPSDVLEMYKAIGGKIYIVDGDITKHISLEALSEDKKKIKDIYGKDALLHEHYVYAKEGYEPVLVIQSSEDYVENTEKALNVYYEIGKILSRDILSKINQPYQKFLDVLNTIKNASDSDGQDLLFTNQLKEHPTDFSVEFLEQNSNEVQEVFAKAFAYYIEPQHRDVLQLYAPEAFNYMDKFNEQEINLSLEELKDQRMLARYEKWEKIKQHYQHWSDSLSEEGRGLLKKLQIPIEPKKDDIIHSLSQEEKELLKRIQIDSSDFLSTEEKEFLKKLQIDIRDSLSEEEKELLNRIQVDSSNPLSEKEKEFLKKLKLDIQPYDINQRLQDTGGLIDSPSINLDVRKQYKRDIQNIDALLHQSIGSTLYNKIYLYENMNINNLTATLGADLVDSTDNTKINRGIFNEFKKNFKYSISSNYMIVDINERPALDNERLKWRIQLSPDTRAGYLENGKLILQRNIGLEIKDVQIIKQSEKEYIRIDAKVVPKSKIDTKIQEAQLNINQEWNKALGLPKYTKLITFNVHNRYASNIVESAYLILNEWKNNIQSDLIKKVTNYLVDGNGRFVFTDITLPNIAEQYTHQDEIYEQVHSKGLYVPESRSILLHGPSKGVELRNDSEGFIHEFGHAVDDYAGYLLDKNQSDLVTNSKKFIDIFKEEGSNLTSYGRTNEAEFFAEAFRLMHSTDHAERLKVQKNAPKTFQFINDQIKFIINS

LF-Biotin [2] = molecular target: T1, LF-Biotin; test: non-adsorbed VHH ELISA, IPTG-induced VHH-myc, LF-Biotin vs His-SNAP-Halo-Biotin
EF-Biotin [3] = molecular target: T2, EF-Biotin (B. anthracis, UniProt P40136 34-800)
T2 sequence: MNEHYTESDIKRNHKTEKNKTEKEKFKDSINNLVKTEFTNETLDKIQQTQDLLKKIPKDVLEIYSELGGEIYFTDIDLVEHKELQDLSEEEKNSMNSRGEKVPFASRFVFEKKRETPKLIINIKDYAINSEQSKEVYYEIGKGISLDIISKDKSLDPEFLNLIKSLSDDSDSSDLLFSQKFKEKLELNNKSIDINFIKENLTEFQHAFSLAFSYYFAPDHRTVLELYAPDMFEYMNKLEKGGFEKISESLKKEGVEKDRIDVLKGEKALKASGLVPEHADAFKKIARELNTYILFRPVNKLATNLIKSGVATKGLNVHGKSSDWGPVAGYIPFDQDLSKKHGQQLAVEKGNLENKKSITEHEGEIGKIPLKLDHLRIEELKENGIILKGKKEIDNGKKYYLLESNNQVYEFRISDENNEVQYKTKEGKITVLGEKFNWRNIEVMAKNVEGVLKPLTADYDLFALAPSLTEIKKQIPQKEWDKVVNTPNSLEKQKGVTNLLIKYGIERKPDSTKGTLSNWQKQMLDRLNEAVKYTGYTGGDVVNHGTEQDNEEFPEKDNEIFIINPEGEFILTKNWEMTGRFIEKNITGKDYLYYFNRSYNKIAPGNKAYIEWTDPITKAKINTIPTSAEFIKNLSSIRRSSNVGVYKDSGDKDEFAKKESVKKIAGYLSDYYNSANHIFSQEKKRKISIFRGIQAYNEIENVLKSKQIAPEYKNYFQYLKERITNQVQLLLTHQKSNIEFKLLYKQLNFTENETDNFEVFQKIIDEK

EF-Biotin [4] = molecular target: T2, EF-Biotin; test: non-adsorbed VHH ELISA, IPTG-induced VHH-myc, EF-Biotin (Ag+) vs control (Ag-)

Row | Binder | Phage ELISA ratio signal LF/signal His-SNAP-Halo (LF-Biotin [1]) | Induced ELISA ratio Signal LF/signal His-SNAP-Halo (LF-Biotin [2]) | Phage ELISA Ag+/Ag- (EF-Biotin [3]) | Phage IPTG Ag+/Ag- (EF-Biotin [4])
1 | B1 | 7.7 ratio | 3.9 ratio | – | –
2 | B2 | – | – | 31.5 ratio | 6.2 ratio
3 | B3 | 34.6 ratio | 9.2 ratio | – | –
4 | B4 | 17 ratio | 6.8 ratio | – | –
5 | B5 | – | – | 51.8 ratio | 5.8 ratio
6 | B6 | 41.5 ratio | 8 ratio | – | –
7 | B7 | 36.5 ratio | 5 ratio | – | –
8 | B8 | – | – | 51.3 ratio | 10.2 ratio
9 | B9 | – | – | 44.5 ratio | 6.6 ratio
10 | B10 | – | – | 36.2 ratio | 5 ratio
11 | B11 | 45.5 ratio | 6.3 ratio | – | –
12 | B12 | – | – | 43.6 ratio | 4.9 ratio
13 | B13 | – | – | 36.7 ratio | 3.6 ratio
14 | B14 | 8.9 ratio | 7.3 ratio | – | –
15 | B15 | 47.2 ratio | 6.3 ratio | – | –
16 | B16 | – | – | 40.1 ratio | 6.3 ratio
17 | B17 | 38.1 ratio | 4.6 ratio | – | –
18 | B18 | – | – | 52.7 ratio | 6.1 ratio
19 | B19 | 30.2 ratio | 5.5 ratio | – | –
20 | B20 | – | – | 36.7 ratio | 5.7 ratio
